Test [1] has as its target T1, human B7-H4 on the cell surface (human, UniProt Q7Z7D3 25-282).
T1 construct: whole, on cells; also called hu B7-H4; CHO-K1/huB7-H4
T1 sequence (looked up): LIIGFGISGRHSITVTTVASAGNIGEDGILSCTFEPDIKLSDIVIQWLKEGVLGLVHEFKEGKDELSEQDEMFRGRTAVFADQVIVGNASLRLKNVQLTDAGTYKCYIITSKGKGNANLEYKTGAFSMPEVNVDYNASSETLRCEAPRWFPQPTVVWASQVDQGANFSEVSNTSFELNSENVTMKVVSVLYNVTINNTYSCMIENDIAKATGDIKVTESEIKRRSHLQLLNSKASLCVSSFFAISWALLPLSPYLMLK
Nature of the test: FACS, CHO-K1/hu B7-H4 cells. The procedure: (§1) Briefly, cells were digested and resuspended in PBS containing 2% FBS, and the cell density was adjusted to 1×10⁶ cells/mL. The cells were seeded in a 96-well V-bottom plate (Corning, Cat #3894) at 100 μL/well, followed by the addition of test antibodies 3-fold serially diluted at a concentration that was 2 times the final concentration, each at 100 μL/well. The cells were incubated away from light at 4° C. for 2 h. Then, the cells in each well were rinsed twice with 100 μL of pre-cooled PBS and centrifuged at 500 g at 4° C. for 5 min, and then the supernatant was discarded. […] The cells in each well were then rinsed twice with 100 μL of pre-cooled PBS and centrifuged at 500 g at 4° C. for 5 min, and then the supernatant was discarded. Finally, the cells in each well were resuspended in 200 μL of pre-cooled PBS, and the fluorescence signal values were read using ACEA Novocyte3000.
Background: A flow cytometer gives signals particle by particle.

Test [2] has as its target T2, human B7-H4 (protein in solution, BLI) (human, UniProt Q7Z7D3 25-258, limits assumed).
T2 sequence (looked up): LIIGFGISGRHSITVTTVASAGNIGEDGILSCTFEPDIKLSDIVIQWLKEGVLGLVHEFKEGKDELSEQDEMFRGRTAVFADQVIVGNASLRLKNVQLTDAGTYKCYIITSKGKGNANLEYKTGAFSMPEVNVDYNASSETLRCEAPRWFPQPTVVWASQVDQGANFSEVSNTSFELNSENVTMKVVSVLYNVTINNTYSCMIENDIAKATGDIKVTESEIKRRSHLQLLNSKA
Nature of the test: BLI (Octet), antibody captured on AHC sensor, antigen in solution. The procedure: The binding kinetics between the antigen and the antibody was analyzed by the biolayer interferometry (BLI) technique using an Octet Red 96e molecular interaction analyzer (Fortebio).
When the affinity of the antigen for the antibody was determined, the rotation speed of the sensor was set at 1000 rpm/min. […] Finally, the AHC sensor was immersed in a 10 mM glycine-hydrochloric acid solution at pH 1.5 for regeneration to elute the proteins bound to the sensor.
When data analysis was performed using Octet Data Analysis software (Fortebio, version 11.0), 0 nM was taken as a reference well, and reference subtraction was performed; the “1:1 Global fitting” method was selected to fit the data, and the kinetics parameters of the binding of antigens to antigen-binding proteins were calculated, with kₒₙ(1/Ms) values, kdis(1/s) values, and KD(M) values obtained (see Table 3 and FIG. 2).

Test [3] has as its target T3, mouse B7-H4 on the cell surface (mouse, UniProt Q7TSP5 25-257).
T3 construct: whole, on cells; also called m B7-H4; CHO-K1/mB7-H4
T3 sequence (looked up): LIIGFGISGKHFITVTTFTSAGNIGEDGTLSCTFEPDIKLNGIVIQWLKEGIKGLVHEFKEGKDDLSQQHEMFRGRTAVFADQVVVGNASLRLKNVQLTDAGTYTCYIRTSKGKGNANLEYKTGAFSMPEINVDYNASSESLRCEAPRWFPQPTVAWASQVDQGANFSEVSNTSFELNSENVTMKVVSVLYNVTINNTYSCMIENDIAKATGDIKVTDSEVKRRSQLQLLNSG
Nature of the test: FACS on CHO-K1/mB7-H4 cells.

Test [4] deals with T1, human B7-H4 on the cell surface. Nature of the test: FACS, MDA-MB-468 cells. The procedure: as §1
Test [5] addresses T4, cynomolgus monkey B7-H4 on the cell surface (cynomolgus monkey, UniProt A0A2K5U6P5 25-282).
T4 construct: whole, on cells; also called cyno B7-H4; CHO-K1/cynoB7-H4
T4 sequence: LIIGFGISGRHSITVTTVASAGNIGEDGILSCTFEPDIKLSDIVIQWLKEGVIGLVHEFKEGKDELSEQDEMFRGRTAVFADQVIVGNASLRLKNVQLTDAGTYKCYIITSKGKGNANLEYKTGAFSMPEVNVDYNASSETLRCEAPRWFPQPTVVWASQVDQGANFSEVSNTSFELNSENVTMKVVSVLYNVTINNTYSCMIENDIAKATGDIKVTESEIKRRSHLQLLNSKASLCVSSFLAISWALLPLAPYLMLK
Nature of the test: FACS, CHO-K1/cyno B7-H4 cells. As to the method:
as §1

Test [6] has as its target T1, human B7-H4 on the cell surface. Nature of the test: FACS, CHO-K1/hu B7-H4 cells. As to the method:
as §1
The source holds these as a separate data set.

Test [7] deals with T3, mouse B7-H4 on the cell surface. Nature of the test: FACS, CHO-K1/m B7-H4 cells. The procedure: as §1

These results are taken from US20250136694A1 (HARBOUR BIOMED SHANGHAI, published 2025).

B1: PR006004 (antibody, V domains shown)
VH: EVQLVESGGGLVQPGGSLRLSCAASGFAFSNYWMHWARQVPGKGRVWISRISGDGRSTSYADSVKGRFTISRDNAKNMVYLQMNNLRAEDTAVYYCARDRFGDDYYYGMNVWGQGTTVTVSS
notes: also called R7004M1A2; anti-human B7-H4 HCAb monoclonal antibody
As a reminder, the EC50 is the midpoint of the concentration-response curve. The term Kd denotes a measure of binding affinity in units of concentration. For orientation: koff means the first-order rate constant of dissociation. By kon is commonly meant a measure of how fast the partners come together. For the molecule B1, in test [1], it took 2.75 nM to reach a half-maximal effect (EC50) and the “Maximum MFI” value stood at 1.63e+06 MFI. Moreover, in test [2], the Kd is 1.89 nM, the koff stood at 0.000396 s⁻¹ and the kon was determined as 210000 M⁻¹ s⁻¹. Moreover, the binding result in test [3] is recorded as “no binding (tested: 100 nM)”. In addition, in test [4], the EC50 amounted to 5.19 nM and the “Maximum MFI” value turned out to be 183000 MFI. For the same molecule, in test [5], the EC50 came to 1.65 nM and the “Maximum MFI” value came out at 1.57e+06 MFI. In addition, the EC50 in test [6] turned out to be 4.86 nM.

B2: PR007202 (antibody, IgG1, V domains shown)
VH: EVQLVESGGGLVQPGGSLRLSCAASGFAFSNYWMHWARQVPGKGREWISRISGDSTSTSYADSVKGRFTISRDNAKNMVYLQMNNLRAEDTAVYYCARDRFGDDYYYGMNVWGQGTTVTVSS
notes: also called charge variant of PR006004 (V46E, G55S, R56T)
Consider B2, for which, in test [1], a half-maximal effect (EC50) was put at 5.58 nM and the “Maximum MFI” value worked out at 1.51e+06 MFI.

B3: PR007440 (antibody, IgG1, V domains shown)
VH: EVQLVESGGGLVQPGGSLRLSCAASGFAFSNYWMHWARQVPGKGRVWISRISGDSRSTSYADSVKGRFTISRDNAKNMVYLQMNNLRAEDTAVYYCARDRFGDDYYYGMNVWGQGTTVTVSS
notes: also called PTM variant (G55S) of PR006004
Take B3: the binding result in test [3] is “no binding (tested: 100 nM)”. Besides, in test [4], it took 9.18 nM to reach a half-maximal effect (EC50) and the “Maximum MFI” value came to 185000 MFI. In test [5], the EC50 is 3.06 nM and the “Maximum MFI” value is 1.59e+06 MFI.

B4: PR007203 (antibody, IgG1, V domains shown)
VH: EVQLVESGGGLVQPGGSLRLSCAASGFAFSNYWMHWARQVPGKGREWISRISGDSTSTSYEDSVKGRFTISRDNAKNMVYLQMNNLRAEDTAVYYCARDRFGDDYYYGMNVWGQGTTVTVSS
notes: also called charge variant of PR006004 (V46E, G55S, R56T, A61E)
As to B4, in test [1], a half-maximal effect (EC50) was put at 5.41 nM and the “Maximum MFI” value stood at 1.53e+06 MFI.

B5: PR007201 (antibody, IgG1, V domains shown)
VH: EVQLVESGGGLVQPGGSLRLSCAASGFAFSNYWMHWARQVPGKGREWISRISGDSSSTSYEDSVKGRFTISRDNAKNMVYLQMNNLRAEDTAVYYCARDRFGDDYYYGMNVWGQGTTVTVSS
notes: also called charge variant of PR006004 (V46E, G55S, R56S, A61E)
Consider B5, for which, in test [1], the EC50 is 5.5 nM and the “Maximum MFI” value is 1.46e+06 MFI.

B6: PR007196 (antibody, IgG1, V domains shown)
VH: EVQLVESGGGLVQPGGSLRLSCAASGFAFSNYWMHWARQVPGKGREWISRISGDSESTSYADSVKGRFTISRDNAKNMVYLQMNNLRAEDTAVYYCARDRFGDDYYYGMNVWGQGTTVTVSS
notes: also called charge variant of PR006004 (V46E, G55S, R56E)
As for B6, in test [1], the response was half-maximal at 3.72 nM (EC50) and the “Maximum MFI” value was found to be 971000 MFI.

B7: PR007195 (antibody, IgG1, V domains shown)
VH: EVQLVESGGGLVQPGGSLRLSCAASGFAFSNYWMHWARQVPGKGREWISRISGDSDSTSYEDSVKGRFTISRDNAKNMVYLQMNNLRAEDTAVYYCARDRFGDDYYYGMNVWGQGTTVTVSS
notes: also called charge variant of PR006004 (V46E, G55S, R56D, A61E)
As to B7, in test [1], it took 5.65 nM to reach a half-maximal effect (EC50) and the “Maximum MFI” value was found to be 1.58e+06 MFI.

B8: PR007200 (antibody, IgG1, V domains shown)
VH: EVQLVESGGGLVQPGGSLRLSCAASGFAFSNYWMHWARQVPGKGREWISRISGDSSSTSYADSVKGRFTISRDNAKNMVYLQMNNLRAEDTAVYYCARDRFGDDYYYGMNVWGQGTTVTVSS
notes: also called charge variant of PR006004 (V46E, G55S, R56S)
As to B8, in test [1], the EC50 stood at 5.39 nM and the “Maximum MFI” value came to 1.48e+06 MFI.

B9: PR006008 (antibody, IgG1, V domains shown)
VH: EVQLVESGGGLVQPGGSLRLSCAASGFTFTDFWMHWVRQVPGKGREWVSRISPDGSSTSYEDSVKGRFTISRDNAKNTVYLQMHGLRAEDTAVYYCTRFSTGWHRIEYFQHWGQGTLVTVSS
notes: also called R7004M6D4; anti-human B7-H4 HCAb monoclonal antibody
With B9, in test [2], binding was characterised by a dissociation constant (Kd) of 3.65 nM, the koff came out at 0.00114 s⁻¹ and the kon is 312000 M⁻¹ s⁻¹. In test [4], the EC50 came to 0.162 nM and the “Maximum MFI” value came out at 149000 MFI. Moreover, in test [5], the EC50 was 0.432 nM and the “Maximum MFI” value turned out to be 1.25e+06 MFI. The molecule also had an EC50 in test [7] of 0.403 nM. The same molecule gave an EC50 in test [6] of 1.07 nM.

B10: PR007441 (antibody, IgG1, V domains shown)
VH: EVQLVESGGGLVQPGGSLRLSCAASGFTFTDFWMHWVRQVPGKGREWVSRISPDSSSTSYEDSVKGRFTISRDNAKNTVYLQMHGLRAEDTAVYYCTRFSTGWHRIEYFQHWGQGTLVTVSS
notes: also called PTM variant (G55S) of PR006008
Consider B10, for which the EC50 was determined as 0.244 nM in test [4], 0.721 nM in test [5] and 0.617 nM in test [7]. In addition, the “Maximum MFI” value in test [4] is 148000 MFI; in test [5], 1.26e+06 MFI.
